Experimental data published in patent publication US20020115613A1, “Treatment of prostate cancer” (priority 2001, published 2002).

B1: Tumor necrosis factor α—Related Apoptosis Inducing Ligand (protein, UniProt P50591 1-281, looked up)
Tumor necrosis factor ligand …: MAMMEVQGGPSLGQTCVLIVIFTVLLQSLCVAVTYVYFTNELKQMQDKYSKSGIACFLKEDDSYWDPNDEESMNSPCWQVKWQLRQLVRKMILRTSEETISTVQEKQQNISPLVRERGPQRVAAHITGTRGRSNTLSSPNSKNEKALGRKINSWESSRSGHSFLSNLHLRNGELVIHEKGFYYIYSQTYFRFQEEIKENTKNDKQMVQYIYKYTSYPDPILLMKSARNSCWSKDAEYGLYSIYQGGIFELKENDRIFVSVTNEHLIDMDHEASFFGAFLVG
notes: 281 amino acid type II transmembrane protein of the tumor necrosis factor α family; purchased from Biomol

How the values were obtained:
Assay type in all cases: cell-based
LNCaP cells [1] = test: MTT assay (cell survival); conditions: for cell survival: 400 ng/ml TRAIL and/or 10 μM Mifepristone for three days, FIG. 1A
Procedure: (§1) LNCaP were obtained from American Type Culture Collection (Rockville, Md.) and LNCaP C4-2 cells were purchased from Urocor Inc., Oklahoma City, Okla. Cells were grown in RPMI 1640 medium supplemented with 10% (LNCaP) or 5% (LNCaP C4-2) fetal bovine serum (Hyclone, Logan, Utah) and grown in the presence of 5% CO2 at 37° C. Cells were treated with 10 μM Mifepristone (Sigma, St. Louis, Mo.) for three days or with increasing concentrations (from 200 ng/ml to 600 ng/ml) of TRAIL (Biomol Research Laboratories, Inc., Plymouth Meetings, Pa.) for varying time intervals 2, 4, 6, 8, 16, 20 and 24 hours (hr). Thus, for treatment with Mifepristone, cells were treated with Mifepristone for three days and then some cells treated (without washing) with TRAIL for indicated periods. Upon completion of the experiment, cells were harvested, and total proteins, cytosol or mitochondrial fractions were isolated as described below. At least three experiments were conducted with a minimum of four plates per treatment per experiment. Two methods were used to measure induction of apoptosis by drug treatment: the MTT assay and the Apoptosense assay. The MTT assay measures mitochondrial enzyme activity and is indicative of the number of surviving cells. […] Cells were seeded in 96-well plates (6000 cells/well) and treatment was started 24 hr after seeding the cells. After completion of the treatment, cells were incubated at 37° C. with the MTT reagent for 3 hr and processed according to manufacturers instructions (Promega Corporation, Madison, Wis.). Color development was measured at 490 nm on a Spectra MAX 340 microplate reader (Molecular Devices, Menlo Park, Calif.).

LNCaP C4-2 cells [2] = test: MTT assay (cell survival); conditions: for cell survival: 400 ng/ml TRAIL and/or 10 μM Mifepristone for three days, FIG. 1B
Procedure: as §1

LNCaP cells [3] = test: Western blotting of death receptors, caspases, Bid, cytochrome c, Akt; conditions: LNCaP; for DR4 levels / expression of DR5: FIG. 2A
Procedure: (§2) LNCaP were obtained from American Type Culture Collection (Rockville, Md.) and LNCaP C4-2 cells were purchased from Urocor Inc., Oklahoma City, Okla. Cells were grown in RPMI 1640 medium supplemented with 10% (LNCaP) or 5% (LNCaP C4-2) fetal bovine serum (Hyclone, Logan, Utah) and grown in the presence of 5% CO2 at 37° C. Cells were treated with 10 μM Mifepristone (Sigma, St. Louis, Mo.) for three days or with increasing concentrations (from 200 ng/ml to 600 ng/ml) of TRAIL (Biomol Research Laboratories, Inc., Plymouth Meetings, Pa.) for varying time intervals 2, 4, 6, 8, 16, 20 and 24 hours (hr). Thus, for treatment with Mifepristone, cells were treated with Mifepristone for three days and then some cells treated (without washing) with TRAIL for indicated periods. Upon completion of the experiment, cells were harvested, and total proteins, cytosol or mitochondrial fractions were isolated as described below. At least three experiments were conducted with a minimum of four plates per treatment per experiment.
(§3) For experiments using inhibitors, the cells were pre-treated with increasing concentrations of the inhibitors (10 μM to 100 μM) for one hr and then with TRAIL. Caspase-8-specific (Z-IETD-FMK) and caspase-9-specific ([…]) inhibitors were purchased from Enzyme Systems Products, Livermore, Calif. The inhibitors were dissolved in DMSO; to limit cellular toxicity, care was taken not to exceed 0.2% DMSO in the culture medium. Appropriate controls included vehicle treated cells with or without the inhibitors.
(§4) Cells were harvested by trypsinization, washed in 1×PBS and cell pellets resuspended in lysis buffer (100 mM Tris-HCl pH 8.0, 0.1% Triton X 100 and protease inhibitor cocktail from Roche Diagnostic Corporation, Indianapolis, Ind.). Cells were incubated over ice for 30 min and centrifuged at 10,000 g at 4° C. for 10 min. The supernatant was collected and the protein concentration estimated using Bio-Rad protein reagent (Bio-Rad Laboratories, Hercules, Calif.).
(§5) Proteins (50 μg, unless stated otherwise) were separated on NuPAGE 10% Bis-Tris gels (Novex pre-cast mini gels, InVitrogen, Carlsbad, Calif.) at 100 volts for 1 hour in the presence of 1×MES-SDS running buffer (InVitrogen, Carlsbad, Calif.). Separated proteins were transferred to (PVDF) membranes (Bio-Rad Laboratories, Hercules, Calif.) at 42 volts for 2.5 hr using a Novex XCell II blotting apparatus in MES transfer buffer in the presence of NuPAGE antioxidant. Transfer of the proteins to the polyvinylidene difluoride (PVDF) membrane was confirmed by staining with Ponceau S (Sigma, St. Louis, Mo.). The blots were blocked in 5% non-fat dry milk in TBS, washed twice for 10 min each with TBS containing 0.1% Tween-20 and incubated for 2 hr at RT with primary antibody diluted in TBS containing 0.5% milk.
(§6) The following antibodies were used in the immunoblots: DR4, DR5 and cytochrome c (Imgenex, San Diego, Calif.), BID (BioSource International, Camarillo, Calif.), caspases-8, -9, and Akt (Cell Signaling Technology, Beverely, Mass.), caspase-3 (BD Pharmingen, San Diego, Calif.) Iκβ and XIAP (Cell Signaling Technology, Beverly, Mass.), cFLIP (StressGen Biotechnology Corp, Victoria, Canada), actin (Sigma Chemical Co., St. Louis, Mo.) and Cox II (Molecular Probes, Eugene, Oreg.). Immunoreactive bands were visualized using ECL detection system (Amersham, Pharmacia Biotech, Arlington Heights, Ill.) and signals were developed after exposure to X-ray film (X-Omat films, Eastman Kodak Company, Rochester, N.Y.).
(§7) For separation of mitochondrial and cytosolic fractions, cells were trypsinized, centrifuged at 600 g for 10 min at 4° C., washed twice in ice-cold PBS and re-suspended in buffer A (20 mM HEPES-KOH, pH 7.2, 10 mM KCl, 1.5 mM MgC12, 1 mM sodium-EDTA, 1 mM sodium-EGTA, 250 mM sucrose and protease inhibitor cocktail). Cells were homogenized on ice with a glass Dounce homogenizer (30 strokes) and were centrifuged at 750 g for 5 min at 4° C. […]

LNCaP C4-2 cells [4] = test: as above; conditions: LNCaP C4-2; for DR4 levels: FIG. 2B
Procedure: as §2, §3, §4, §5, §6, §7

[5] = 200 ng/ml TRAIL compared with 400 ng/ml, data not shown
[6] = 600 ng/ml TRAIL compared with 400 ng/ml, data not shown

Molecule	cell survival (LNCaP cells [1])	cell survival (LNCaP C4-2 cells [2])	DR4 levels (LNCaP cells [3])	expression of DR5 (LNCaP cells [3])	activation of procaspase-8 (LNCaP cells [3]; FIG. 3A)	activation of caspase-3 (LNCaP cells [3]; FIG. 3C)	activation of caspase-7 in TRAIL-treated cells after pre-treatment with Mifepristone (LNCaP cells [3]; Mifepristone pre-treatment, then TRAIL, FIG. 3C)	DR4 levels (LNCaP C4-2 cells [4])	activation of procaspase-8 (LNCaP C4-2 cells [4]; FIG. 3B)	induction of caspase-3 (LNCaP C4-2 cells [4]; FIG. 3D)	cell death at lower concentration of TRAIL (LNCaP cells [1]; [5])	apoptosis at higher dose of TRAIL (LNCaP cells [1]; [6])	cell death at lower concentration of TRAIL (LNCaP C4-2 cells [2]; [5])	apoptosis at higher dose of TRAIL (LNCaP C4-2 cells [2]; [6])	phosphorylated Akt (LNCaP cells [3]; 15 min, FIG. 8)	truncated Bid (tBid) (LNCaP cells [3]; FIG. 3A)	activation of caspase-7 (LNCaP cells [3]; FIG. 3C)	cytochrome c levels in cytosol (LNCaP cells [3]; FIG. 5A)	cytochrome c levels in cytosol (LNCaP C4-2 cells [4]; FIG. 5B)
CC#C[C@]1(O)CC[C@H]2[C@@H]3CCC4=CC(=O)CCC4=C3[C@@H](c3ccc(N(C)C)cc3)C[C@@]21C [Mifepristone]	little effect on survival	little effect on survival	did not show significant changes	significant increase	small increase in the activation of caspase-8	activates caspase-3	activated caspase-7 by 4 hr	did not show significant changes	small increase in the activation of caspase-8	nor is it effective in inducing caspase-3	–	–	–	–	–	–	–	–	–
B1	did not alter cell survival significantly	reduced cell survival as early as 8 hr	did not show significant changes	did not increase significantly	decrease in the 57 KDa procaspase-8 protein as early as 2 hr	yielded cleaved 17 KDa caspase-3 product by 2 hr	–	did not show significant changes	–	–	lower cell death	did not increase apoptosis significantly	lower cell death	did not increase apoptosis significantly	slightly decreased phosphorylated Akt	tBid was noted by 2 hr	activated caspase-7 by 20 hr	increased cytochrome c levels in cytosol within 15 min	increased cytochrome c levels in cytosol within 15 min
